Results from paper PMC10778422, “PI3Kδ Inhibition Potentiates Glucocorticoids in B-lymphoblastic Leukemia by Decreasing Receptor Phosphorylation and Enhancing Gene Regulation”.

Target: GR-AF1-DBD unmodified (Homo sapiens, UniProt P04150 27-506)
Experiment: EMSA; reference; Kd plotted in figure only; 5 mM Mg2+; EMSA: 20 mM Tris-HCl pH 8.0, 150 mM KCl, 10% glycerol, 5 mM MgCl2, 1 mM DTT, 1 mM EDTA, 200 ng/uL BSA, 40 ng/uL salmon sperm DNA; dsDNA diluted to 10 nM in this buffer; Hill fit; temperature not given
Conditions: protein: recombinant; tags: His6 (pET28a); chain copies: 2; label: Cy5; blunt

Chain of GR-AF1-DBD unmodified (P04150 27-506): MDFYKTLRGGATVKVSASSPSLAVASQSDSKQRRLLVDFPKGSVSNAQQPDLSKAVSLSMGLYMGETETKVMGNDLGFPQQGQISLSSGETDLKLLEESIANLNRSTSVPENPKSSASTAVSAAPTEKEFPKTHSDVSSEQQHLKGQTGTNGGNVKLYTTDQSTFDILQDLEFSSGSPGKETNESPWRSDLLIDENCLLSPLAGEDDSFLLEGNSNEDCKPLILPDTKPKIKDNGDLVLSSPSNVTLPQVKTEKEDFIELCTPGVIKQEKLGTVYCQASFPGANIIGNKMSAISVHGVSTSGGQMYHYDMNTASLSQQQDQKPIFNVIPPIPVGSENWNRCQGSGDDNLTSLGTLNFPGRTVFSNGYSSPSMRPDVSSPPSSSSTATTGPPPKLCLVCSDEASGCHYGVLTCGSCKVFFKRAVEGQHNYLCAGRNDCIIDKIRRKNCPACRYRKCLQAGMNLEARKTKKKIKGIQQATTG

B1: consensus GR site (dsDNA)
DNA 1: GTACGGAACATCGTGTACTGTAC
DNA 2: GTACAGTACACGATGTTCCGTAC
  binding result: binds
